Assay results as given in patent publication US10562947B2, “Compositions and methods for preventing or treating diseases, conditions or processes characterized by aberrant fibroblast proliferation and extracellular matrix deposition” (MOERAE MATRIX, INC., priority 2011, dated 2020).

Experiments:
Assay in all cases: Kinase Profiling Assay
Format in all cases: biochemical
Details in all cases: 100 μM peptide
Tie2(h) = Tie2(h) (Homo sapiens, UniProt Q02763)
How it was run: (§1)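 First, MK2 inhibitor peptides were applied to a panel of 266 human kinases; then each kinase's activity was measured in duplicate to assess off-target inhibition.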

Met(h) = Met(h) (Homo sapiens, UniProt P08581)
Chain of Met(h) (P08581 25-1390): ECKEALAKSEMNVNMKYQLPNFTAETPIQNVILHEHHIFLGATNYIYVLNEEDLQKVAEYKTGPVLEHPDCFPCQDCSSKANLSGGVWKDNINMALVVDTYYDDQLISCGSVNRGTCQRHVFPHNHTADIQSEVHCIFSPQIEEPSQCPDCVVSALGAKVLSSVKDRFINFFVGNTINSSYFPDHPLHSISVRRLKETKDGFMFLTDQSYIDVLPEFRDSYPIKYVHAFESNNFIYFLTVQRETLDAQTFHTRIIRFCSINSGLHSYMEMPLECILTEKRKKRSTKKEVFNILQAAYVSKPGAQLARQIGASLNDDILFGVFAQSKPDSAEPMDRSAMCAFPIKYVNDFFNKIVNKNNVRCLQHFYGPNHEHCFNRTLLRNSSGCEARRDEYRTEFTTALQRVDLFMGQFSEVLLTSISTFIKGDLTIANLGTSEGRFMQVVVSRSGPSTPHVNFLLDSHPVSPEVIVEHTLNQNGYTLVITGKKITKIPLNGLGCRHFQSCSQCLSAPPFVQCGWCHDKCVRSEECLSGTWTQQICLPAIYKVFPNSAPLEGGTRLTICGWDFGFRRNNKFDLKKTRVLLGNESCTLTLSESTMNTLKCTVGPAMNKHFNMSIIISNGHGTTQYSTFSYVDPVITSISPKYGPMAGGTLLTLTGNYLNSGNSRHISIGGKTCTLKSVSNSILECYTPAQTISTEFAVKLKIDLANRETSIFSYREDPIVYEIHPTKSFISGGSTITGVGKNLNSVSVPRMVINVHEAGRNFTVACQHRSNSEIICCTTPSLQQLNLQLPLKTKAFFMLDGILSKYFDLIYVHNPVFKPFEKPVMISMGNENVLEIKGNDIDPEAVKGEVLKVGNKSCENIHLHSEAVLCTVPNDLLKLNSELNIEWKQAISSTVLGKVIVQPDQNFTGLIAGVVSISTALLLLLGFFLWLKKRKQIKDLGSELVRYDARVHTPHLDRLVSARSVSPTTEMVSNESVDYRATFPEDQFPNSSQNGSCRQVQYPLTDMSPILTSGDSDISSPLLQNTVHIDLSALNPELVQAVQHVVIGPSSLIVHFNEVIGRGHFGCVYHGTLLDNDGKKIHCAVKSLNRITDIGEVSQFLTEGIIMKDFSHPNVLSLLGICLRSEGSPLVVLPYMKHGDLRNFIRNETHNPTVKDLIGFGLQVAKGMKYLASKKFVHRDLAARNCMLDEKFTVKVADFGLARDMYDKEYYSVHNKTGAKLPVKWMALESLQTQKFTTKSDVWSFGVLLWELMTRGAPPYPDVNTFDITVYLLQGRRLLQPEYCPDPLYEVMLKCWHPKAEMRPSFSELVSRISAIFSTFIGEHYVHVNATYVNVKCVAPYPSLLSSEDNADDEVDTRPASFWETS
How it was run: as §1

FGFR1(h) = FGFR1(h) (Homo sapiens, UniProt P11362)
Chain of FGFR1(h) (P11362 22-822): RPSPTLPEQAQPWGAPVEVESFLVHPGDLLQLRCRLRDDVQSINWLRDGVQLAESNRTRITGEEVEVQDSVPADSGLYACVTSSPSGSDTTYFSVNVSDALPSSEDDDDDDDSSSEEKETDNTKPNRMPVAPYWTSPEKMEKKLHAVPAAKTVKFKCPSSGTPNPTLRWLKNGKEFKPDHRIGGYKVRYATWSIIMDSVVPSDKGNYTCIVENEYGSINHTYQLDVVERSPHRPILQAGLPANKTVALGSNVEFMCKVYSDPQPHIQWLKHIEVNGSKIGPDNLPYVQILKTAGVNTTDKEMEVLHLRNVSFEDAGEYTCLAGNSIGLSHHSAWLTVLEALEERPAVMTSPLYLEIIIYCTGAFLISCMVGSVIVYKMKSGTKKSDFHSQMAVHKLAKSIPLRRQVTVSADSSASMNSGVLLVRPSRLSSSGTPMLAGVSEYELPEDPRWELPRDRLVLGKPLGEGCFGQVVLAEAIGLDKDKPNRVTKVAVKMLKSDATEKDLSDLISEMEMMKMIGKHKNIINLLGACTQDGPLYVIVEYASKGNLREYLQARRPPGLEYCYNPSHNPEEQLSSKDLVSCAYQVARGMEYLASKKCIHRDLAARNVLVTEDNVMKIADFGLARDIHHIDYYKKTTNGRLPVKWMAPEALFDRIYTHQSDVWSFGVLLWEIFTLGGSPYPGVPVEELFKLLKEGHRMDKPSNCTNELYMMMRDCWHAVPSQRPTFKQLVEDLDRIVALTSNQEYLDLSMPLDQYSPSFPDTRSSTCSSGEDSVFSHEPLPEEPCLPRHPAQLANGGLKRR
How it was run: as §1

TAO2(h) = molecular target: T1, TAO2(h) (Homo sapiens, UniProt Q9UL54)
T1 sequence (Q9UL54 1-1235): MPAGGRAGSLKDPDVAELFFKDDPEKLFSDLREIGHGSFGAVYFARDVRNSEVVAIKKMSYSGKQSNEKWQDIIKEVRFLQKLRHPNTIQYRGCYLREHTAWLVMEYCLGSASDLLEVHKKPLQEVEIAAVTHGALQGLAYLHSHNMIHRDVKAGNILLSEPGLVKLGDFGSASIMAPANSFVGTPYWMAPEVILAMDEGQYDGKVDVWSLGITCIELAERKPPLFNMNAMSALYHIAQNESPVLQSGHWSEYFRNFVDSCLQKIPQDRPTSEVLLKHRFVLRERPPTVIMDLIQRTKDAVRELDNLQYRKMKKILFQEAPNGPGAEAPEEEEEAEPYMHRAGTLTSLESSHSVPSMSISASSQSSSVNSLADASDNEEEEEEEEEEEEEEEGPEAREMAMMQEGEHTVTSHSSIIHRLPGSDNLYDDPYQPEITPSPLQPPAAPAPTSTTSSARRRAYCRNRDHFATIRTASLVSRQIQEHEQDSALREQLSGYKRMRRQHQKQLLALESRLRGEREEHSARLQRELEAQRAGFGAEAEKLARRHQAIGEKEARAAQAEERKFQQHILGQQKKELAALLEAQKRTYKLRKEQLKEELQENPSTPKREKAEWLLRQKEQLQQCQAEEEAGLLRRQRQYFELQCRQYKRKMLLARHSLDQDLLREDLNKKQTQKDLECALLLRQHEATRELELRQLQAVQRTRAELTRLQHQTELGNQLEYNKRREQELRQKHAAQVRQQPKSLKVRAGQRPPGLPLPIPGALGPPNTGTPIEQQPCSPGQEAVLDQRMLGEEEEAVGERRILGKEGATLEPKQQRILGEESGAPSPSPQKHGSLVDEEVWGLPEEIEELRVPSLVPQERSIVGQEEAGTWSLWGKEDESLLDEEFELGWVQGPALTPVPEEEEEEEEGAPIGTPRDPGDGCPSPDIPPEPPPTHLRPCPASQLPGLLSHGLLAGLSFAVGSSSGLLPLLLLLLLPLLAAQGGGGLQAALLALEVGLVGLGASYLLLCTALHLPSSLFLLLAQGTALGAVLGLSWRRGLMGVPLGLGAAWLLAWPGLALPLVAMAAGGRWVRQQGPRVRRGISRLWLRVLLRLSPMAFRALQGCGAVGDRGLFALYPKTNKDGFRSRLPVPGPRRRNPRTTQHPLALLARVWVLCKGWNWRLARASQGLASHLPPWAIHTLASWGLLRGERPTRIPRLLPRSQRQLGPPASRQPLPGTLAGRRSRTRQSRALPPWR
How it was run: as §1

PTK5(h) = molecular target: T2, PTK5(h) (Homo sapiens, UniProt P42685)
T2 construct: purchased Millipore (IC50 Profiler Express service)
T2 sequence (P42685 whole entry): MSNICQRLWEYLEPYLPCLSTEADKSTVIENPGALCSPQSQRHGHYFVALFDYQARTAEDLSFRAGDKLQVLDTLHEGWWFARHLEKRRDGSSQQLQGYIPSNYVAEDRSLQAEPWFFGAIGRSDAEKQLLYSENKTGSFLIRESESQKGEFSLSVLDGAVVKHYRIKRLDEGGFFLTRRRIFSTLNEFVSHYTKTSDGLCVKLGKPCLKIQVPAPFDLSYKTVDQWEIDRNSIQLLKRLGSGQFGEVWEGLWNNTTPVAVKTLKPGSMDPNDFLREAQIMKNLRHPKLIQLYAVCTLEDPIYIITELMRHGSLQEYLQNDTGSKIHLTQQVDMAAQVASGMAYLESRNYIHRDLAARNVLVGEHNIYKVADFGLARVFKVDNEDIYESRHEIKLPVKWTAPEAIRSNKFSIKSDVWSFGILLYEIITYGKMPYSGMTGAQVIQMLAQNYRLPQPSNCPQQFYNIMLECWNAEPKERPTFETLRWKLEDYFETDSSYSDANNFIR
How it was run: as §1

CHK2(h) = CHK2(h) (Homo sapiens, UniProt O96017)
Chain of CHK2(h) (O96017 whole entry): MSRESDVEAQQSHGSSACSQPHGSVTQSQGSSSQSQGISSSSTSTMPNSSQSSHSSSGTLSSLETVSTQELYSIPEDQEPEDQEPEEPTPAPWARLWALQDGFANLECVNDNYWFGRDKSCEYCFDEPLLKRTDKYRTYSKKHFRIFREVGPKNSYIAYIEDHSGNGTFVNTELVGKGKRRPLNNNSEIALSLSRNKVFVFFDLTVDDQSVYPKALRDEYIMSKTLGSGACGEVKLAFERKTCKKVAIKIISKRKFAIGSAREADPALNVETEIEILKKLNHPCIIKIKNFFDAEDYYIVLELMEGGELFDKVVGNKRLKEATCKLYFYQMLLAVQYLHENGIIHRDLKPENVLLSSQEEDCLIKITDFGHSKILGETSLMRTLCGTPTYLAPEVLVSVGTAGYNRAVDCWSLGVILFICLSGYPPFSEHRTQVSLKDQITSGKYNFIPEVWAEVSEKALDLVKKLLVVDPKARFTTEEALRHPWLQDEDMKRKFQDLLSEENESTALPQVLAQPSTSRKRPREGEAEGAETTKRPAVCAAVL
How it was run: as §1

PKCα(h) = PKCα(h) (Homo sapiens, UniProt P17252)
How it was run: as §1

PKCθ(h) = molecular target: T3, PKCθ(h) (Homo sapiens, UniProt Q04759)
T3 construct: purchased Millipore (IC50 Profiler Express service)
T3 sequence (Q04759 whole entry): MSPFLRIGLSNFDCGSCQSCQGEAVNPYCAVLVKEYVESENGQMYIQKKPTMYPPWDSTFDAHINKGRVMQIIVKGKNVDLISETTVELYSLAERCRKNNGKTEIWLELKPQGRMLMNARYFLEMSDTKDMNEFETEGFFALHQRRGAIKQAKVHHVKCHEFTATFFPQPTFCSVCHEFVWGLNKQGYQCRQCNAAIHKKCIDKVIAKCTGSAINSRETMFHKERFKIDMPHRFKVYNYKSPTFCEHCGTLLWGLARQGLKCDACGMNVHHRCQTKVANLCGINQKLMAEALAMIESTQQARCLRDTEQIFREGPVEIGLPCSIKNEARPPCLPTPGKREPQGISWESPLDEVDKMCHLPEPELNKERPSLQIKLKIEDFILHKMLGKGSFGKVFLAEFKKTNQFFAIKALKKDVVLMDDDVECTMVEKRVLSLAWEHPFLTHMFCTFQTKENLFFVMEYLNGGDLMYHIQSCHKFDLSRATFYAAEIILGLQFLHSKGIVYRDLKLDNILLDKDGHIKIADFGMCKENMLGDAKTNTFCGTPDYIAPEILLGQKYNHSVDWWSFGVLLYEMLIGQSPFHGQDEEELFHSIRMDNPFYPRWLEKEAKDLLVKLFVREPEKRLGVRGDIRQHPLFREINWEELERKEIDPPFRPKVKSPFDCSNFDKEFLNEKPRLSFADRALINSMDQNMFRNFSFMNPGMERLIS
How it was run: as §1

Abl(Q252H)(h) = Abl(Q252H)(h) (Homo sapiens, UniProt P00519, Q252H)
How it was run: as §1

Syk(h) = Syk(h) (Homo sapiens, UniProt P43405)
How it was run: as §1

cKit(D816V)(h) = cKit(D816V)(h) (Homo sapiens, UniProt P10721, D816V)
How it was run: as §1

Fms(Y969C)(h) = Fms(Y969C)(h) (Homo sapiens, UniProt P07333, Y969C)
How it was run: as §1

EphA2(h) = EphA2(h) (Homo sapiens, UniProt P29317)
How it was run: as §1

| Sequence | Tie2(h) % activity (Tie2(h)) | Met(h) % activity (Met(h)) | FGFR1(h) % activity (FGFR1(h)) | TAO2(h) % activity (TAO2(h)) | PTK5(h) % activity (PTK5(h)) | CHK2(h) % activity (CHK2(h)) | PKCα(h) % activity (PKCα(h)) | PKCθ(h) % activity (PKCθ(h)) | Abl(Q252H)(h) % activity (Abl(Q252H)(h)) | Syk(h) % activity (Syk(h)) | cKit(D816V)(h) % activity (cKit(D816V)(h)) | Fms(Y969C)(h) % activity (Fms(Y969C)(h)) | EphA2(h) % activity (EphA2(h)) |
| --- | --- | --- | --- | --- | --- | --- | --- | --- | --- | --- | --- | --- | --- |
| HRRIKAWLKKIKALARQLGVAA (Mammalian) [MMI-0500] | 22% | 27% | 18% | 15% | 96% | 13% | 3% | 62% | 40% | 5% | 30% |  |  |
| FAKLAARLYRKALARQLGVAA [MMI-0300] | 26% | 65% | 55% | 70% | 132% | 66% | 89% | 88% | 82% | 24% | 60% | 72% | 31% |
| YARAAARQARAKALNRQLGVA (Mammalian) [MMI-0200] | 53% | 71% | 97% | 93% | 108% |  | 100% | 101% |  | 36% | 118% | 88% | 95% |
| KAFAKLAARLYRKALARQLGVAA [MMI-0400] | 21% | 62% | 59% | 74% | 129% | 54% | 86% | 76% | 98% | 9% | 35% | 91% | 17% |
